Data published in PMC10464304, “Refined read‐out: The hUHRF1 Tandem‐Tudor domain prefers binding to histone H3 tails containing K4me1 in the context of H3K9me2/3” (Protein Science : A Publication of the Protein Society, 2023).

T1: fluorescently labeled H3 peptide without modification (Homo sapiens)
T1 chain: ARTKQTARKSTGGKAPRKQ

T2: fluorescently labeled H3 peptide with K4me1 and K9me2 (Homo sapiens)
T2 chain: ARTKQTARKSTGGKAPRKQ

T3: fluorescently labeled H3 peptide with K9me2 (Homo sapiens)
T3 chain: ARTKQTARKSTGGKAPRKQ

T4: fluorescently labeled H3 peptide carrying only K4me1 (Homo sapiens)
T4 chain: ARTKQTARKSTGGKAPRKQ


How the values were obtained:
[1] = biological target: T1, fluorescently labeled H3 peptide …; test: FP; settings: domain or fragment; chains chain; modification not given; FITC-labeled
[2] = biological target: T2, fluorescently labeled H3 peptide with …; test: FP; settings: domain or fragment; chains chain; modification not given; K4me1 (monomethyl-lysine at 4); K9me2 (dimethyl-lysine at 9); FITC-labeled
[3] = biological target: T3, fluorescently labeled H3 peptide with …; test: FP; settings: domain or fragment; chains chain; modification not given; K9me2 (dimethyl-lysine at 9); FITC-labeled
[4] = biological target: T4, fluorescently labeled H3 peptide …; test: FP; settings: domain or fragment; chains chain; modification not given; K4me1 (monomethyl-lysine at 4); FITC-labeled
[5] = biological target: fluorescently labeled H3 peptide with K4me1 and K9me2; test: fluorescence polarisation; fluorescence anisotropy titration; 100 nM FITC-labeled peptide in the cuvette, protein added stepwise; 23°C; 100 mM KCl, 20 mM HEPES pH 7.5, 10% v/v glycerol

Row | Kd [1] [nM] | Kd [2] [nM] | Kd [3] [nM] | Kd [4] [nM] | fold preference over the H3K9me2 peptide [5] [fold] | Binder
1 | > 9000 | 300 | 640 | 3640 |  | GST-fused Tandem-Tudor domain (TTD) of human UHRF1, residues 126-280, wild type, Q96T88 126-280 (protein) MWDETELGLYKVNEYVDARDTNMGAWFEAQVVRVTRKAPSRDEPCSSTSRPALEEDVIYHVKYDDYPENGVVQMNSRDVRARARTIIKWQDLEVGQVVMLNYNPDNPKERGFWYDAEISRKRETRTARELYANVVLGDDSLNDCRIIFVDEVFKI
2 |  |  |  |  | > 2 | GST-fused Tandem-Tudor domain (TTD) of human UHRF1, residues 126-280, wild type (domain or fragment) MWDETELGLYKVNEYVDARDTNMGAWFEAQVVRVTRKAPSRDEPCSSTSRPALEEDVIYHVKYDDYPENGVVQMNSRDVRARARTIIKWQDLEVGQVVMLNYNPDNPKERGFWYDAEISRKRETRTARELYANVVLGDDSLNDCRIIFVDEVFKI
